Measured values as given in patent US20240043563A1.
Positions count from the first letter of the chain named.

B1: humanized anti-human MASP-2 monoclonal antibody 124-Hu (antibody, human IgG4 S228P, kappa, V domains shown)
VH: QVQLQESGPGLVKPSQTLSLTCTVSGYSITSDYAWNWIRQPPGKGLEWMGYISYSGRTSYNPSLKSRLTISRDTSKNQFSLKLSSVTAADTAVYYCARHYGDFWGQGTTVTVSS
VL: DIQMTQSPSSLSASVGDRVTITCKASQNVDTNVAWYQQKPGKAPKLLIYSASYRYSGVPSRFSGSGSGTDFTLTISSLQPEDFATYYCQQYNSYPSTFGQGTKLEIKR
B2: humanized anti-human MASP-2 monoclonal antibody 126-Hu (antibody, human IgG4 S228P, kappa, V domains shown)
VH: QVQLVESGGGVVQPGRSLRLSCAASGFTFSSFGMHWVRQAPGKGLEWVAYISSGSSSSFYVDTVKGRFTISRDNSKNTLYLQMNSLRAEDTAVYYCARGDRNFEVWGQGTTVTVSS
VL: DIQMTQSPSSLSASVGDRVTITCRASQSVSSSRYSYMHWFQQKPGKAPKLLIYHASNLESGVPSRFSGSGSGTDFTLTISSLQPEDFATYYCQQSWEVPWTFGQGTKLEIKR
B3: humanized anti-human MASP-2 monoclonal antibody 136-Hu (antibody, human IgG4 S228P, kappa, V domains shown)
VH: QVQLVQSGAEVKKPGASVKVSCKASGNTFTNYWMHWIRQAPGQGLEWMGYINPNTGYTDFNQKFKDRVTLTADKSTSTAYMELSSLRSEDTAVYYCTLQLGRNFDYWGQGTTVTVSS
VL: B2 VL with Y34S, S35T, M37I, F40Y, H54Y, A55S, Q93H, V98I, W100Y
B4: humanized anti-human MASP-2 monoclonal antibody 100-Hu (antibody, human IgG4 S228P, kappa, V domains shown)
VH: QVQLVESGGGVVQPGGSLRLSCAASGFTFSNFGIHWVRQAPGKGLEWVAYISSGGSAVFYADTVKGRFTISRDNSKNTLYLQMNSLRAEDTAVYYCAKSDRYFDYWGQGTTVTVSS
VL: EIVLTQSPATLSLSPGERATLSCRASQSVSSSSYRYIHWYQQKPGQAPRLLIYYASNLESGIPARFSGSGSGTDFTLTISSLEPEDFAVYYCQHSWETPWTFGQGTKLEIKR
B5: murine anti-human MASP-2 monoclonal antibody 136 (antibody, V domains shown)
VH: QVQLQQSGAELAKPGASVKMSCKASGNTFTNYWMHWIKQRPGQGLEWVGYINPNTGYTDFNQKFKDKATLTADKSSTTAYMQLISLTSEDSTVYYCTLQLGRNFDYWGQGTTLTVSS
VL: DIVLTQSPASLGVSLGQRATISCRASQSVSSSRSTYIHWYQQKPGQPPKLLIKYSSNLESGVPARFSGGGSGTDFTLNIHPVEAEDTATYYCHQSWEIPYTFGGGTKLEIR
B6: murine anti-human MASP-2 monoclonal antibody 115 (antibody, V domains shown)
VH: DVQLVESGGGLVQPGGSRKLSCAASGFTFSSFGMHWVRQAPEKGLEWVAYISSGSSSFFYADTVKGRFTISRDNPKNTLFLQMTSLRSEDTAMYYCARGDRNFDVWGAGTTVTVSS
VL: DIVLTQSPASLAVSLGQRATISCRASQSVTSSRYSYMHWFQQKPGQPPNLLIKHASNLESGVPARFSGSGSGTDFTLNIHPVEEDDTATYYCQHSWEVPWTFGGGTKLEIK
B7: murine anti-human MASP-2 monoclonal antibody 126 (antibody, V domains shown)
VH: B6 VH with A23V, F58S, A61V, D104E
VL: B6 VL with T30S, D85E, H94Q
B8: murine anti-human MASP-2 monoclonal antibody 60 (antibody, V domains shown)
VH: QVQLQQSGAELMKPGASVKISCKATGYPFSTYWIEWVKQRPGHGLEWIGEILPGSDNTNYNEKFKGKATFTADTSSNTAYMQLSSLTSEDSAVYYCARRTTATRAWFVYWGQGTLVTVSA
VL: DIVMSQSPSSLAVSVGEKVTMSCKSSQSLLYSSNQKNYLAWYQQKPGQSPKLLIYWASTRESGVPDRFTGSGSGTDFTLTISSVRAEDLAVYYCQHYYTYPWTFGGGTNLEIK
B9: murine anti-human MASP-2 monoclonal antibody 120 (antibody, V domains shown)
VH: DVQLQESGPGLVKPSQSLSLTCTVTGYSITSDYAWSWIRQFLRNKLEWMGYISYSGRTSYNPSLKSRISITRDTSKNQFFLQLNSVTTEDTATYFCARLITGGDYWGQGTSVTVSS
VL: DIVMTQSQKFMSTSVGDRVSVTCKASQNVGINVVWYQQKPGQSPKALIYSASYRFSGVPDRFTGSGSGTDFTLTISNVQSEDLAEYLCLQYDINPLTFGAGTKLELK
B10: murine anti-human MASP-2 monoclonal antibody 100 (antibody, V domains shown)
VH: B4 VH with Q1D, V11L, L18R, R19K, G42E, Y80F, N84T, A88S, V93I, V112L
VL: B6 VL with T30S, R33S, S35R, M37I, F40Y, N49R, H54Y, D85E, V98T
B11: murine anti-human MASP-2 monoclonal antibody 124 (antibody, V domains shown)
VH: DVQLQESGPGLVKPSQSLSLTCTVTGYSITSDYAWNWIRQFPGNKLEWMGYISYSGRTSYNPSLKSRLSITRDTSKNQFFLQLTSVTTEDTATYYCARHYGDFWGQGTTLTVSS
VL: DIVMTQSQKFMSTSVGDRVSVTCKASQNVDTNVAWFQQKPGQSPKPLIYSASYRYSGVPDRFTGSGSGTDFTLTISNVQSEDLANYFCQQYNSYPSTFGSGTKLEIK

molecular target: Fc-hMASP-2A-CCS (human) [IgG part: P01857]; experiment: ELISA according to Example 5, plate coated with Fc-hMASP-2A-CCS
Sequence (P01857 other isoform, or with tags, fused parts or gaps limits assumed, form in doubt): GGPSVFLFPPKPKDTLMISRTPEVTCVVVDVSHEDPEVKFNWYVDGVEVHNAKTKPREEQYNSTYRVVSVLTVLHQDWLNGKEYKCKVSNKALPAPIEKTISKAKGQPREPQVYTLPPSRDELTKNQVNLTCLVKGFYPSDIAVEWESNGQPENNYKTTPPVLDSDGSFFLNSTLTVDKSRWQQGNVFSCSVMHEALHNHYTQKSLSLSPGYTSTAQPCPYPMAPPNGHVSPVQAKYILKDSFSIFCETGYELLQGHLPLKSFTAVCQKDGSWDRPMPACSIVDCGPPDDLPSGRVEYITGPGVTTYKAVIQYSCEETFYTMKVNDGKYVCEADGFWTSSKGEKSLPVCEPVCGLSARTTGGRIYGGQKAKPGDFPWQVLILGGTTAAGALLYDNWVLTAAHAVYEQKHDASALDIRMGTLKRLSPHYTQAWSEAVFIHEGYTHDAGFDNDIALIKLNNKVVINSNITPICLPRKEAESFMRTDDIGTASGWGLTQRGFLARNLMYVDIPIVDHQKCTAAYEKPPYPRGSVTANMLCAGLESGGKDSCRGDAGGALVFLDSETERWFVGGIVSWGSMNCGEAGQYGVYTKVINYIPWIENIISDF

EC50 | Binder
0.25 nM | B1
0.246 nM | B2
0.26 nM | B3
0.297 nM | B4

molecular target: MASP-2-CCS-Flag (human) (UniProt O00187); experiment: SPR, Biacore T200, antibody captured on Protein A chip, MASP-2-CCS-Flag as analyte
Sequence (O00187 other isoform, or with tags, fused parts or gaps limits assumed, form in doubt): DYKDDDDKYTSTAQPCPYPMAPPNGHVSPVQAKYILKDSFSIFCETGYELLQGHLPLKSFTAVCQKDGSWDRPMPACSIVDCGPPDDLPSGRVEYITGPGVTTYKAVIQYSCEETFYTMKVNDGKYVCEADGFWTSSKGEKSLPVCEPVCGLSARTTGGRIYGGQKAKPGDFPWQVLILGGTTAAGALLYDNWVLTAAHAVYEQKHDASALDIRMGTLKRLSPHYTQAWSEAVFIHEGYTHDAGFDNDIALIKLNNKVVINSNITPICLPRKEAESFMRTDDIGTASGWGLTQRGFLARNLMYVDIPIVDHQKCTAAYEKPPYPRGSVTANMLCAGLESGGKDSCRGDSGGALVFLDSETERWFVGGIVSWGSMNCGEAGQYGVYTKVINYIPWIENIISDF

Kd | fold affinity against the reference antibody Narsoplimab | koff | kon | Binder
0.35 nM | 25 times | 0.000582 s⁻¹ | 1.66e+06 M⁻¹ s⁻¹ | B1
0.148 nM | 60 times | 6.33e-05 s⁻¹ | 428000 M⁻¹ s⁻¹ | B2
0.998 nM |  | 0.000589 s⁻¹ | 590000 M⁻¹ s⁻¹ | B3
0.701 nM |  | 0.000298 s⁻¹ | 428000 M⁻¹ s⁻¹ | B4

molecular target: Fc-hMASP-2A-CCS (human) [IgG part: P01857]; experiment: ELISA, plate coated with 1 ug/mL Fc-hMASP-2A-CCS

EC50 | Binder
0.143 nM | B5
0.151 nM | B6
0.161 nM | B7
0.149 nM | B8
0.16 nM | B9
0.173 nM | B10
0.182 nM | B11
